Experimental data as given in paper PMC7515726.

Legend:
Test in all cases: affinity purification with mass spectrometry
[1] = target: Nuc1, acidic patch mutant nucleosome (hH2A.Dx10), biotinylated 185 bp 601 DNA (human) (UniProt P62807)
[2] = target: Nuc2, disk patch 2 mutant nucleosome (hH2A.Dx2, hH2B.Cx8), biotinylated 185 bp 601 DNA (human) (UniProt Q71DI3)
[3] = target: Nuc3, disk patch 3 mutant nucleosome (hH3.2x10, hH4x24, hH2B.Cx9), biotinylated 185 bp 601 DNA (human) (UniProt P20671)

Sequence of RUVBL2 (Q9WTM5 whole entry): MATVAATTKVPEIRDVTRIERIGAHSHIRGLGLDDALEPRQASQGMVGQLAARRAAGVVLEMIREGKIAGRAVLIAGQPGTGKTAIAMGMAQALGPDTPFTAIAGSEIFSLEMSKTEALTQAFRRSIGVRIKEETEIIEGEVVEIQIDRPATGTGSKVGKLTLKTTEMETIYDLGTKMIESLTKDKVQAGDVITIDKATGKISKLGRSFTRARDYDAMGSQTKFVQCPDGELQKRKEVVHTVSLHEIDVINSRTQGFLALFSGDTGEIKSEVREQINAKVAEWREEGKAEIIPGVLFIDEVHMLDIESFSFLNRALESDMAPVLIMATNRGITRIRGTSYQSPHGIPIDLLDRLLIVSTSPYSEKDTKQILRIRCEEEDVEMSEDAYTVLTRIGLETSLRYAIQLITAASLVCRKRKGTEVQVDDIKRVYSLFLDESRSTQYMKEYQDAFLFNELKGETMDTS
Sequence of RNF2 (RING finger protein 2) (Q9CQJ4 whole entry): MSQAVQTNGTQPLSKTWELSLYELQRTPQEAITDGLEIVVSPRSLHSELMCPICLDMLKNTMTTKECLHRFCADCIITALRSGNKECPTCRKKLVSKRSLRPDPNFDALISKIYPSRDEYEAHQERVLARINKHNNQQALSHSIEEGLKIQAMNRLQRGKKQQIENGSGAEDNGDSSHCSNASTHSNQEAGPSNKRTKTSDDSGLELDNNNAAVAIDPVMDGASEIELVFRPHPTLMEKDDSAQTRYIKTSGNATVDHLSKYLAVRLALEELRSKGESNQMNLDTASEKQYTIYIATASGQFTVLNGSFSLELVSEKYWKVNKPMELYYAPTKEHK
Sequence of RUVBL1 (P60122 whole entry): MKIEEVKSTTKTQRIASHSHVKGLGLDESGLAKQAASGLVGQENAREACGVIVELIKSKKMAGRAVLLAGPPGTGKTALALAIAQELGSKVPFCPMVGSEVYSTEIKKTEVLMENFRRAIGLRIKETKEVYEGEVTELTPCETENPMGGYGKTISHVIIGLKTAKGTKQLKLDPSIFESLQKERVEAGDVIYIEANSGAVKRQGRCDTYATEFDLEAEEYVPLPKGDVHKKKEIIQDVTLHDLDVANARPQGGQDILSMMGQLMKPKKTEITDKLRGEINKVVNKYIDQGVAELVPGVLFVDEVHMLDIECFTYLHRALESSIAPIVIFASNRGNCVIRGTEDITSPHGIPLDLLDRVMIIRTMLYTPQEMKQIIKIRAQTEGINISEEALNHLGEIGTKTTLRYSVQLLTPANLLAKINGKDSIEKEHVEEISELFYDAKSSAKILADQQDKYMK

fold decrease in binding vs wild-type nucleosome [1]	fold decrease in binding vs wild-type nucleosome [2]	fold decrease in binding vs wild-type nucleosome [3]	Substance
1.72 fold			DNMT1 DNA methyltransferase (from UniProt P13864 1-1620) (enzyme)
		1.38 fold	RUVBL2 (from UniProt Q9WTM5 1-463) (natural protein)

More lines, now with the values behind:

Substance	fold decrease in binding vs wild-type nucleosome [1]	fold decrease in binding vs wild-type nucleosome [2]	fold decrease in binding vs wild-type nucleosome [3]
HMGN2 (high mobility group nucleosome-binding domain-containing protein 2) (from UniProt P09602 1-90) (natural protein)	27 fold	13 fold	
RNF2 (RING finger protein 2) (from UniProt Q9CQJ4 1-336) (natural protein)	1.5 fold		
RUVBL1 (from UniProt P60122 1-456) (natural protein)			1.33 fold
methylcytosine dioxygenase Tet1 (from UniProt Q3URK3 1-2039) (enzyme)	1.8 fold		
